This note sets out measurements from US20240309062A1.

Test [1] has as its target T1, mouse IFNAR2 (mouse) (UniProt O35664).
T1 sequence: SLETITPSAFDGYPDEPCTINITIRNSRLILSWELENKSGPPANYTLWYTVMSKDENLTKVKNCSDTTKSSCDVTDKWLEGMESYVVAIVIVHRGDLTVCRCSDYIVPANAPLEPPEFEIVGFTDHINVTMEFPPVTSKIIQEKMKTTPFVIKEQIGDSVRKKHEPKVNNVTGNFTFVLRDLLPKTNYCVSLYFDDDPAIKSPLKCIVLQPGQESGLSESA
In words: AlphaSeq.

The target in test [2] is T1, mouse IFNAR2 (mouse). The experiment in a line: AlphaSeq (yeast mating, Aga2 display).
The target in test [3] is T1, mouse IFNAR2 (mouse). The experiment in a line: AlphaSeq, replicates.

In the case of “IFNA2b_L49P_K135I (from UniProt P01563 24-188) (ligand)”, the apparent Kd (pooled screen) in the test with mouse IFNAR2 (mouse) [1] worked out at 0.697 µM.

Regarding “IFNA2b_L49P_V165R (from UniProt P01563 24-188) (ligand)”, the apparent Kd (pooled screen) with mouse IFNAR2 (mouse) [1] worked out at 8.96 µM.

For the substance “IFNA2b_M44N_R167T (from UniProt P01563 24-188) (ligand)”, in the test with mouse IFNAR2 (mouse) [1], the apparent Kd (pooled screen) was 7.01 µM.

As to “IFNA2b_L49P_R172W (from UniProt P01563 24-188) (ligand)”, in the test with mouse IFNAR2 (mouse) [1], the apparent Kd (pooled screen) worked out at 9.95 µM.

For the substance “IFNA2b_L49P_R167T (from UniProt P01563 24-188) (ligand)”, the apparent Kd (pooled screen) with mouse IFNAR2 (mouse) [2] turned out to be 3 µM.

For “IFNA2b_M44N_G125Y (from UniProt P01563 24-188) (ligand)”, the apparent Kd (pooled screen) with mouse IFNAR2 (mouse) [1] amounted to 5.82 µM.

For “IFNA2b_L49P_R167S (from UniProt P01563 24-188) (ligand)”, the apparent Kd (pooled screen) with mouse IFNAR2 (mouse) [1] worked out at 65.8 µM.

Consider “IFNA2b_M44N_K187E (from UniProt P01563 24-188) (ligand)”, for which the apparent Kd (pooled screen) with mouse IFNAR2 (mouse) [1] is 0.415 µM.

For “IFNA2b_L49P_K187L (from UniProt P01563 24-188) (ligand)”, in the test with mouse IFNAR2 (mouse) [1], the apparent Kd (pooled screen) worked out at 0.085 µM.

Take “IFNA2b_M44N_R167L (from UniProt P01563 24-188) (ligand)”: the apparent Kd (pooled screen) in the test with mouse IFNAR2 (mouse) [1] amounted to 2.27 µM.

With “IFNA2b_M44N_V128G (from UniProt P01563 24-188) (ligand)”, the apparent Kd (pooled screen) in the test with mouse IFNAR2 (mouse) [2] is 0.472 µM.

Consider “IFNA2b_L49P_R172S (from UniProt P01563 24-188) (ligand)”, for which the apparent Kd (pooled screen) in the test with mouse IFNAR2 (mouse) [1] is 6.19 µM.

With “IFNA2b_M44N_E130M (from UniProt P01563 24-188) (ligand)”, the apparent Kd (pooled screen) in the test with mouse IFNAR2 (mouse) [2] was found to be 0.825 µM.

Take “IFNA2b_L49P_R167A (from UniProt P01563 24-188) (ligand)”: in the test with mouse IFNAR2 (mouse) [1], the apparent Kd (pooled screen) came out at 2.2 µM.

Take “IFNA2b_L49P_R167H (from UniProt P01563 24-188) (ligand)”: the apparent Kd (pooled screen) with mouse IFNAR2 (mouse) [1] came out at 0.48 µM.

As for “IFNA2b_L49P_K187Y (from UniProt P01563 24-188) (ligand)”, the apparent Kd (pooled screen) with mouse IFNAR2 (mouse) [1] turned out to be 0.09 µM.

For the substance “IFNA2b_L49P_A168Q (from UniProt P01563 24-188) (ligand)”, the apparent Kd (pooled screen) with mouse IFNAR2 (mouse) [1] stood at 0.321 µM.

Take “IFNA2b_M44N_A168H (from UniProt P01563 24-188) (ligand)”: the apparent Kd (pooled screen) in the test with mouse IFNAR2 (mouse) [1] turned out to be 0.802 µM.

Take “IFNA2b_L49P_R167I (from UniProt P01563 24-188) (ligand)”: the apparent Kd (pooled screen) in the test with mouse IFNAR2 (mouse) [2] was 0.708 µM.

For the substance “IFNA2b_L49P_V165E (from UniProt P01563 24-188) (ligand)”, in the test with mouse IFNAR2 (mouse) [1], the apparent Kd (pooled screen) was found to be 16.4 µM.

Regarding “IFNA2b_L49P_V165F (from UniProt P01563 24-188) (ligand)”, the apparent Kd (pooled screen) in the test with mouse IFNAR2 (mouse) [1] stood at 22.9 µM.

As for “IFNA2b_L49P_K187R (from UniProt P01563 24-188) (ligand)”, the apparent Kd (pooled screen) with mouse IFNAR2 (mouse) [1] came out at 0.415 µM.

“IFNA2b_M44N_S177D (from UniProt P01563 24-188) (ligand)”: the apparent Kd (pooled screen) with mouse IFNAR2 (mouse) [1] turned out to be 12.3 µM.

Take “IFNA2b_M44N_S138W (from UniProt P01563 24-188) (ligand)”: the apparent Kd (pooled screen) with mouse IFNAR2 (mouse) [1] was 0.942 µM.

As to “IFNA2b_L49P_R172N (from UniProt P01563 24-188) (ligand)”, the apparent Kd (pooled screen) with mouse IFNAR2 (mouse) [1] stood at 18.1 µM.

“IFNA2_L49P (from UniProt P01563 24-188) (ligand)”: the apparent Kd (pooled screen) with mouse IFNAR2 (mouse) [3] is 0.02 µM.

Consider “IFNA2b_M44N_L184E (from UniProt P01563 24-188) (ligand)”, for which the apparent Kd (pooled screen) with mouse IFNAR2 (mouse) [1] turned out to be 0.811 µM.

Turning to “IFNA2b_M44N_A168S (from UniProt P01563 24-188) (ligand)”, the apparent Kd (pooled screen) with mouse IFNAR2 (mouse) [1] was 0.545 µM.

As for “IFNA2b_M44N_A168Q (from UniProt P01563 24-188) (ligand)”, the apparent Kd (pooled screen) in the test with mouse IFNAR2 (mouse) [1] is 20 µM.

For the substance “IFNA2b_L49P_A168D (from UniProt P01563 24-188) (ligand)”, in the test with mouse IFNAR2 (mouse) [2], the apparent Kd (pooled screen) came to 0.586 µM.

In the case of “IFNA2b_L49P_R167K (from UniProt P01563 24-188) (ligand)”, the apparent Kd (pooled screen) with mouse IFNAR2 (mouse) [1] was 0.077 µM.

For “IFNA2b_M44N_T150G (from UniProt P01563 24-188) (ligand)”, the apparent Kd (pooled screen) with mouse IFNAR2 (mouse) [1] turned out to be 0.528 µM.

Take “IFNA2b_M44N_E188R (from UniProt P01563 24-187) (ligand)”: the apparent Kd (pooled screen) with mouse IFNAR2 (mouse) [2] turned out to be 0.52 µM.

On to “IFNA2b_L49P_N179G (from UniProt P01563 24-188) (ligand)”, for which, in the test with mouse IFNAR2 (mouse) [1], the apparent Kd (pooled screen) came to 0.084 µM.

Take “IFNA2b_M44N_R172W (from UniProt P01563 24-188) (ligand)”: the apparent Kd (pooled screen) with mouse IFNAR2 (mouse) [1] came to 8.77 µM.

For the substance “IFNA2b_L49P_R172A (from UniProt P01563 24-188) (ligand)”, the apparent Kd (pooled screen) with mouse IFNAR2 (mouse) [1] turned out to be 6.87 µM.

For “IFNA2b_L49P_R172M (from UniProt P01563 24-188) (ligand)”, in the test with mouse IFNAR2 (mouse) [1], the apparent Kd (pooled screen) worked out at 0.227 µM.

As for “IFNA2b_L49P_S159H (from UniProt P01563 24-188) (ligand)”, the apparent Kd (pooled screen) with mouse IFNAR2 (mouse) [1] was found to be 0.065 µM.

Take “IFNA2b_M44N_K156E (from UniProt P01563 24-188) (ligand)”: the apparent Kd (pooled screen) with mouse IFNAR2 (mouse) [1] is 24.4 µM.

On to “IFNA2b_M44N_K135G (from UniProt P01563 24-188) (ligand)”, for which the apparent Kd (pooled screen) in the test with mouse IFNAR2 (mouse) [1] amounted to 0.416 µM.

On to “IFNA2b_M44N_E155R (from UniProt P01563 24-188) (ligand)”, for which the apparent Kd (pooled screen) with mouse IFNAR2 (mouse) [1] is 7.67 µM.

In the case of “IFNA2b_L49P_R167V (from UniProt P01563 24-188) (ligand)”, in the test with mouse IFNAR2 (mouse) [2], the apparent Kd (pooled screen) was found to be 1.74 µM.

With “IFNA2b_M44N_A120T (from UniProt P01563 24-188) (ligand)”, in the test with mouse IFNAR2 (mouse) [2], the apparent Kd (pooled screen) is 0.591 µM.

On to “IFNA2b_L49P_R172Q (from UniProt P01563 24-188) (ligand)”, for which, in the test with mouse IFNAR2 (mouse) [1], the apparent Kd (pooled screen) turned out to be 8.55 µM.

“IFNA2b_L49P_S183Y (from UniProt P01563 24-188) (ligand)”: in the test with mouse IFNAR2 (mouse) [1], the apparent Kd (pooled screen) stood at 0.075 µM.

Regarding “IFNA2b_L49P_K156Q (from UniProt P01563 24-188) (ligand)”, the apparent Kd (pooled screen) with mouse IFNAR2 (mouse) [2] is 0.073 µM.

Consider “IFNA2b_L49P_A168K (from UniProt P01563 24-188) (ligand)”, for which the apparent Kd (pooled screen) in the test with mouse IFNAR2 (mouse) [1] is 0.461 µM.

Turning to “IFNA2b_M44N_S175E (from UniProt P01563 24-188) (ligand)”, in the test with mouse IFNAR2 (mouse) [1], the apparent Kd (pooled screen) is 0.484 µM.

Regarding “IFNA2b_L49P_R172I (from UniProt P01563 24-188) (ligand)”, the apparent Kd (pooled screen) in the test with mouse IFNAR2 (mouse) [1] was 0.31 µM.

As to “IFNA2b_M44N_R167I (from UniProt P01563 24-188) (ligand)”, the apparent Kd (pooled screen) in the test with mouse IFNAR2 (mouse) [1] amounted to 4.9 µM.

For the substance “IFNA2b_L49P_V165Q (from UniProt P01563 24-188) (ligand)”, the apparent Kd (pooled screen) in the test with mouse IFNAR2 (mouse) [1] was determined as 18.6 µM.

For “IFNA2b_M44N_L176R (from UniProt P01563 24-188) (ligand)”, in the test with mouse IFNAR2 (mouse) [1], the apparent Kd (pooled screen) amounted to 0.541 µM.

On to “IFNA2b_L49P_L140N (from UniProt P01563 24-188) (ligand)”, for which the apparent Kd (pooled screen) in the test with mouse IFNAR2 (mouse) [2] amounted to 0.48 µM.

As for “IFNA2b_L49P_R172G (from UniProt P01563 24-188) (ligand)”, the apparent Kd (pooled screen) in the test with mouse IFNAR2 (mouse) [1] worked out at 2.26 µM.

For the substance “IFNA2b_M44N_A168K (from UniProt P01563 24-188) (ligand)”, the apparent Kd (pooled screen) with mouse IFNAR2 (mouse) [1] is 23.3 µM.

Take “IFNA2b_L49P_V165D (from UniProt P01563 24-188) (ligand)”: the apparent Kd (pooled screen) in the test with mouse IFNAR2 (mouse) [1] is 26.1 µM.

Turning to “IFNA2b_L49P_V165T (from UniProt P01563 24-188) (ligand)”, the apparent Kd (pooled screen) with mouse IFNAR2 (mouse) [1] stood at 5.95 µM.

Take “IFNA2b_L49P_R167W (from UniProt P01563 24-188) (ligand)”: the apparent Kd (pooled screen) with mouse IFNAR2 (mouse) [1] stood at 6.44 µM.

As for “IFNA2b_L49P_K156T (from UniProt P01563 24-188) (ligand)”, the apparent Kd (pooled screen) with mouse IFNAR2 (mouse) [1] amounted to 0.065 µM.

In the case of “IFNA2b_L49P_V165G (from UniProt P01563 24-188) (ligand)”, in the test with mouse IFNAR2 (mouse) [1], the apparent Kd (pooled screen) amounted to 34.4 µM.

“IFNA2b_M44N_R167A (from UniProt P01563 24-188) (ligand)”: the apparent Kd (pooled screen) in the test with mouse IFNAR2 (mouse) [1] came to 5.78 µM.

With “IFNA2b_L49P_E164D (from UniProt P01563 24-188) (ligand)”, in the test with mouse IFNAR2 (mouse) [1], the apparent Kd (pooled screen) turned out to be 0.075 µM.

Regarding “IFNA2b_L49P_R167L (from UniProt P01563 24-188) (ligand)”, the apparent Kd (pooled screen) with mouse IFNAR2 (mouse) [2] was found to be 1.95 µM.

As to “IFNA2b_M44N_A168N (from UniProt P01563 24-188) (ligand)”, the apparent Kd (pooled screen) with mouse IFNAR2 (mouse) [1] is 1.5 µM.

On to “IFNA2b_L49P_R172V (from UniProt P01563 24-188) (ligand)”, for which, in the test with mouse IFNAR2 (mouse) [1], the apparent Kd (pooled screen) was 0.566 µM.

On to “IFNA2b_L49P_R167M (from UniProt P01563 24-188) (ligand)”, for which, in the test with mouse IFNAR2 (mouse) [1], the apparent Kd (pooled screen) was 2.38 µM.

With “IFNA2b_M44N_S159D (from UniProt P01563 24-188) (ligand)”, the apparent Kd (pooled screen) with mouse IFNAR2 (mouse) [1] is 34.5 µM.

As for “IFNA2b_L49P_R172E (from UniProt P01563 24-188) (ligand)”, the apparent Kd (pooled screen) in the test with mouse IFNAR2 (mouse) [1] came to 47.3 µM.

For the substance “IFNA2b_L49P_L176P (from UniProt P01563 24-188) (ligand)”, the apparent Kd (pooled screen) with mouse IFNAR2 (mouse) [1] was 0.069 µM.
